Target: human CD40 on cells (human) (UniProt P25942)
Assay: cell-based or functional assay

human CD40 on cells (human), sequence (P25942 21-277 limits assumed): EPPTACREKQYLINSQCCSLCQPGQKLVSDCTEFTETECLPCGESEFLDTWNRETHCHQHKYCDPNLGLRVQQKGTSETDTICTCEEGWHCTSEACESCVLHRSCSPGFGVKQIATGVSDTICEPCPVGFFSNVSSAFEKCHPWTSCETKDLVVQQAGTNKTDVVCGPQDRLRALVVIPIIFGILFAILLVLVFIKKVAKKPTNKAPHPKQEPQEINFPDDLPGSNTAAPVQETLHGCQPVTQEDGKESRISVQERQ

With “Hexameric CD40L (from UniProt P29965 116-261) (ligand)” the EC50, CD83 expression, MoDC maturation assay was 0.24 nM and the EC50, IL-8 release, MoDC maturation assay was 0.33 nM.

Reference: patent US20240279350A1
